From patent US20150344535A1 (UNIVERSITY OF QUEENSLAND, published 2015)

Experiments:
[1] = target: T1, TrkAK538A; test: real-time flow cytometry, Hill-Slope association curve, TrkAK538A-expressing HEK293 cells pre-treated with c29
T1 construct: whole, on cells; On transfected HEK293 cells in flow cytometry; in HEK293 lysates in the co-immunoprecipitations; also called TrkK538A

[2] = target: T2, p75^FL on transfected HEK293 cells (UniProt P07174 30-425); test: flow cytometry, 26 nM NGF-FITC 60 min on ice, transfected HEK293 cells
T2 construct: whole, on cells; also called p75^NTR
T2 sequence (looked up): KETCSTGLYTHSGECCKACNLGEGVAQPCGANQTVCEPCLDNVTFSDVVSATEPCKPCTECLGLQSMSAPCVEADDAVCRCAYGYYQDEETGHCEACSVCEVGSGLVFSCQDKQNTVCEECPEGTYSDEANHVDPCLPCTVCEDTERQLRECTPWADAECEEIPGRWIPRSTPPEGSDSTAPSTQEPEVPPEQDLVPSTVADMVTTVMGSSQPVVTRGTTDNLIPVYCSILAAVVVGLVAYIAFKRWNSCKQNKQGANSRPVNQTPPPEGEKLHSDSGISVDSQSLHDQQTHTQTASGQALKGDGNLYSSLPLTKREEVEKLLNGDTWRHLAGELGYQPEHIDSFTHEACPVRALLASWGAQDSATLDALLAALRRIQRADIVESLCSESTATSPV
Experimental: (§1) To investigate NGF binding, PC12 or transfected HEK293 cells were serum starved for 4 hours, harvested, washed with Dulbecco's Modified Eagle Medium (DMEM), and counted. When used, c29 or scrambled peptide were added to cultures for the third hour of the serum starvation procedure.

[3] = target: T1, TrkAK538A; test: as above
Experimental: as §1

[4] = target: T3, p75^Δ-JUX (UniProt P07174 30-425); test: as above
T3 construct: whole, on cells; In HEK293 lysate in the co-immunoprecipitation, on HEK293 cells in the NGF-FITC assays; also called p75^NTR with an intracellular juxtamembrane deletion
T3 sequence (looked up): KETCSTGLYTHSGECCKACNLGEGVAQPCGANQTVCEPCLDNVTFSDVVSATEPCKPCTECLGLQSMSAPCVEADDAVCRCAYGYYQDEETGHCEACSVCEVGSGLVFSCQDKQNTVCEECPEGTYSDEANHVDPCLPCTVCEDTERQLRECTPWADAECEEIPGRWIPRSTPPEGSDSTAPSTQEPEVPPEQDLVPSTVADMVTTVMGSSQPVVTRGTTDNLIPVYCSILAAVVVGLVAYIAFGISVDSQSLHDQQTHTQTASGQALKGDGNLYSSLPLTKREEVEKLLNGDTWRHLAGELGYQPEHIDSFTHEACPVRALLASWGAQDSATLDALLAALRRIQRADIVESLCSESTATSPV
Experimental: as §1

[5] = target: T4, TrkAK538A and p75^Δ-JUX co-expressed on HEK293 cells (UniProt P07174 30-425); test: flow cytometry competition against 26 nM NGF-FITC, co-transfected HEK293 cells
T4 construct: whole, on cells; Two receptors on the same cells; also called TrkAK538A + p75^ΔJUX
Experimental: as §1

[6] = target: T5, TrkAK538A and p75^FL co-expressed on HEK293 cells (UniProt P07174 30-425); test: as above
T5 construct: whole, on cells; Two receptors on the same cells; also called TrkAK538A + p75^FL
Experimental: as §1

[7] = target: T2, p75^FL on transfected HEK293 cells; test: flow cytometry competition against 26 nM NGF-FITC, transfected HEK293 cells
Experimental: as §1

[8] = target: T1, TrkAK538A; test: as above
Experimental: as §1

[9] = target: T3, p75^Δ-JUX; test: as above
Experimental: as §1

B1: NGF-FITC (ligand, mouse, UniProt P01139 122-239, looked up)
chain: SSTHPVFHMGEFSVCDSVSVWVGDKTTATDIKGKEVTVLAEVNINNSVFRQYFFETKCRASNPVESGCRGIDSKHWNSYCTTTHTFVKALTTDEKQAAWRFIRIDTACVCVLSRKATR
modifications: conjugated to FITC
notes: also called fluorescently labelled NGF; FITC-NGF
- fold faster association rate against untreated TrkAK538A-expressing cells [1]: ~3 fold
- % of cells with fluorescence intensity above background [2]: 80%
- % of cells with fluorescence intensity above background [3]: 80%
- % of cells with fluorescence intensity above background [4]: 80%

B2: unlabelled NGF (ligand, mouse, UniProt P01139 122-239, looked up)
chain: SSTHPVFHMGEFSVCDSVSVWVGDKTTATDIKGKEVTVLAEVNINNSVFRQYFFETKCRASNPVESGCRGIDSKHWNSYCTTTHTFVKALTTDEKQAAWRFIRIDTACVCVLSRKATR
notes: also called unlabeled NGF
- excess of unlabelled NGF required for NGF-FITC binding to fall to background fluorescence [5]: 1000 fold
- excess of unlabelled NGF required for NGF-FITC binding to fall to background fluorescence [6]: 1000 fold
- excess of unlabelled NGF required for NGF-FITC binding to fall to background fluorescence [7]: 1000 fold
- excess of unlabelled NGF required for NGF-FITC binding to fall to background fluorescence [8]: 1000 fold
- excess of unlabelled NGF required for NGF-FITC binding to fall to background fluorescence [9]: 1000 fold
